Measurements taken from patent US20230257449A1 (published 2023).

Legend:
H3 (A/Brisbane/10/2007) = H3 (A/Brisbane/10/2007) (influenza A virus H3 …); assay: ELISA
H1 (A/Cali/09/2007) = assay: ELISA

| Binder | EC50 (H3 (A/Brisbane/10/2007)) [pM] | EC50 (H1 (A/Cali/09/2007)) [pM] |
| --- | --- | --- |
| VH 10 / VL 6 (antibody, V domains shown) VH: QVQLVQSGAEVKKPGSSVKVSCKASGFTFSTYAIHWVRQAPGQGLEWMGVISYDANYKYYAQKFQGRVTITRDNSKSTAYMELSSLRSEDTAVYYCARDSRLRSLLYFEWLSQGYFDYWGQGTTLTVSS VL: EIVMTQSPATLSVSPGERATLSCRSSQSITFDYKNYLAWYQQKPGQAPRLLIYWGSTRATGIPARFSGSGSGTEFTLTISSLQSEDFAVYYCQQHYRTPPSFGQGTKVEIK | 69.5 | 17.5 |
| VH 9 / VL 4 (antibody, V domains shown) VH: QVQLVQSGAEVKKPGSSVKVSCKASGFTFSTYAIHWVRQAPGQGLEWMGVISYDANYKYYAQKFQGRVTITRDNSKSTAYMELSSLRSEDTAVYYCAKDSQLRSLLYFEWLSQGYFDYWGQGTTLTVSS VL: DIVMTQSPDSLAVSLGERATINCKSSQSVTFDYKNYLAWYQQKPGQPPKLLIYWASTRESGVPDRFSGSGSGTDFTLTISSLQAEDVAVYYCQQHYRTPPSFGQGTKVEIK | 60.8 | 18.6 |
| VH 10 / VL 4 (antibody, V domains shown) VH: QVQLVQSGAEVKKPGSSVKVSCKASGFTFSTYAIHWVRQAPGQGLEWMGVISYDANYKYYAQKFQGRVTITRDNSKSTAYMELSSLRSEDTAVYYCARDSRLRSLLYFEWLSQGYFDYWGQGTTLTVSS VL: DIVMTQSPDSLAVSLGERATINCKSSQSVTFDYKNYLAWYQQKPGQPPKLLIYWASTRESGVPDRFSGSGSGTDFTLTISSLQAEDVAVYYCQQHYRTPPSFGQGTKVEIK | 24.1 | 18.1 |
| VH 11 / VL 4 (antibody, V domains shown) VH: QVQLVQSGAEVKKPGASVKVSCKASGFTFSTYAINWVRQATGQGLEWMGWISYDANYKYYAQKFQGRVTMTRDTSISTAYMELSSLRSEDTAVYYCAKDSQLRSLLYFEWLSQGYFDYWGQGTTLTVSS VL: DIVMTQSPDSLAVSLGERATINCKSSQSVTFDYKNYLAWYQQKPGQPPKLLIYWASTRESGVPDRFSGSGSGTDFTLTISSLQAEDVAVYYCQQHYRTPPSFGQGTKVEIK | 112000 | 24.4 |
| VH 8 / VL 3 (antibody, V domains shown) VH: EVQLLESGGGLVQPGGSLRLSCAASGFTFSSYAMHWVRQAPGKGLEWVAVISYDANYKYYADSVKGRFTISRDNSKNTLYLQMNSLRAEDTAVYYCAKDSRLRSLLYFEWLSQGYFDYWGQGTLVTVSS VL: DIQMTQSPSSLSASVGDRVTITCRSSQSITFDYKNYLAWYQQKPGKAPKLLIYAASSLQSGVPSRFSGSGSGTDFTLTISSLQPEDFATYYCQQHYRTPPSFGQGTKVEIK | 28.6 | 21.8 |
| VH 5 / VL 6 (antibody, V domains shown) VH: QVQLVESGGGVVQPGRSLRLSCAASGFTFSTYAMHWVRQAPGKGLEWVCVISYDANYKYYADSVKGRFTCSRDNSKNTLYLQMNSLRAEDTAVYYCARDSRLRSLLYFEWLSQGYFDYWGQGTLVTVSS VL: EIVMTQSPATLSVSPGERATLSCRSSQSITFDYKNYLAWYQQKPGQAPRLLIYWGSTRATGIPARFSGSGSGTEFTLTISSLQSEDFAVYYCQQHYRTPPSFGQGTKVEIK | 29.5 | 31.7 |
| VH 6 / VL 2 (antibody, V domains shown) VH: QVQLVESGGGVVQPGRSLRLSCAASGFTFDTYAMHWVRQAPGKGLEWVAVISYDANYKYYADSVKGRFTISRDNSKNTLYLQMNSLRAEDTAVYYCARDSRLRSLLYFEWLSQGYFDYWGQGTLVTVSS VL: DIQMTQSPSSLSASVGDRVTITCRSSQSITFDYKNYLAWYQQKPGKAPKLLIYWGSSLQSGVPSRFSGSGSGTDFTLTISSLQPEDFATYYCQQHYRTPPSFGQGTKVEIK | 108 | 20.7 |
| VH 3 / VL 6 (antibody, V domains shown) VH: QVQLVESGGGVVQPGRSLRLSCAASGFTFSTYAMHWVRQAPGKGLEWVAVISYDANYKYYADSVKGRFTISRDNSKNTLYLQMNSLRAEDTAVYYCAKDSQLRSLLYFEWLSQGYFDYWGQGTLVTVSS VL: EIVMTQSPATLSVSPGERATLSCRSSQSITFDYKNYLAWYQQKPGQAPRLLIYWGSTRATGIPARFSGSGSGTEFTLTISSLQSEDFAVYYCQQHYRTPPSFGQGTKVEIK | 31.3 | 26.8 |
| VH 7 / VL 6 (antibody, V domains shown) VH: EVQLLESGGGLVQPGGSLRLSCAASGFTFSSYAMHWVRQAPGKGLEWVSVISYDANYKYYADSVKGRFTISRDNSKNTLYLQMNSLRAEDTAVYYCAKDSQLRSLLYFEWLSQGYFDYWGQGTTLTVSS VL: EIVMTQSPATLSVSPGERATLSCRSSQSITFDYKNYLAWYQQKPGQAPRLLIYWGSTRATGIPARFSGSGSGTEFTLTISSLQSEDFAVYYCQQHYRTPPSFGQGTKVEIK | 274 | 23.9 |
| VH 10 / VL 2 (antibody, V domains shown) VH: QVQLVQSGAEVKKPGSSVKVSCKASGFTFSTYAIHWVRQAPGQGLEWMGVISYDANYKYYAQKFQGRVTITRDNSKSTAYMELSSLRSEDTAVYYCARDSRLRSLLYFEWLSQGYFDYWGQGTTLTVSS VL: DIQMTQSPSSLSASVGDRVTITCRSSQSITFDYKNYLAWYQQKPGKAPKLLIYWGSSLQSGVPSRFSGSGSGTDFTLTISSLQPEDFATYYCQQHYRTPPSFGQGTKVEIK | 41.2 | 22.7 |
| VH 5 / VL 4 (antibody, V domains shown) VH: QVQLVESGGGVVQPGRSLRLSCAASGFTFSTYAMHWVRQAPGKGLEWVCVISYDANYKYYADSVKGRFTCSRDNSKNTLYLQMNSLRAEDTAVYYCARDSRLRSLLYFEWLSQGYFDYWGQGTLVTVSS VL: DIVMTQSPDSLAVSLGERATINCKSSQSVTFDYKNYLAWYQQKPGQPPKLLIYWASTRESGVPDRFSGSGSGTDFTLTISSLQAEDVAVYYCQQHYRTPPSFGQGTKVEIK | 26.8 | 28.5 |
| VH 3 / VL 3 (antibody, V domains shown) VH: QVQLVESGGGVVQPGRSLRLSCAASGFTFSTYAMHWVRQAPGKGLEWVAVISYDANYKYYADSVKGRFTISRDNSKNTLYLQMNSLRAEDTAVYYCAKDSQLRSLLYFEWLSQGYFDYWGQGTLVTVSS VL: DIQMTQSPSSLSASVGDRVTITCRSSQSITFDYKNYLAWYQQKPGKAPKLLIYAASSLQSGVPSRFSGSGSGTDFTLTISSLQPEDFATYYCQQHYRTPPSFGQGTKVEIK | 38.6 | 24.6 |
| VH 8 / VL 7 (antibody, V domains shown) VH: EVQLLESGGGLVQPGGSLRLSCAASGFTFSSYAMHWVRQAPGKGLEWVAVISYDANYKYYADSVKGRFTISRDNSKNTLYLQMNSLRAEDTAVYYCAKDSRLRSLLYFEWLSQGYFDYWGQGTLVTVSS VL: EIVMTQSPATLSVSPGERATLSCRSSQSITFDYKNYLAWYQQKPGQAPRLLIYSASTRATGIPARFSGSGSGTEFTLTISSLQSEDFAVYYCQQHYRTPPSFGQGTKVEIK | 35.6 | 31.8 |
| VH 3 / VL 2 (antibody, V domains shown) VH: QVQLVESGGGVVQPGRSLRLSCAASGFTFSTYAMHWVRQAPGKGLEWVAVISYDANYKYYADSVKGRFTISRDNSKNTLYLQMNSLRAEDTAVYYCAKDSQLRSLLYFEWLSQGYFDYWGQGTLVTVSS VL: DIQMTQSPSSLSASVGDRVTITCRSSQSITFDYKNYLAWYQQKPGKAPKLLIYWGSSLQSGVPSRFSGSGSGTDFTLTISSLQPEDFATYYCQQHYRTPPSFGQGTKVEIK | 31.3 | 19 |
| VH 8 / VL 6 (antibody, V domains shown) VH: EVQLLESGGGLVQPGGSLRLSCAASGFTFSSYAMHWVRQAPGKGLEWVAVISYDANYKYYADSVKGRFTISRDNSKNTLYLQMNSLRAEDTAVYYCAKDSRLRSLLYFEWLSQGYFDYWGQGTLVTVSS VL: EIVMTQSPATLSVSPGERATLSCRSSQSITFDYKNYLAWYQQKPGQAPRLLIYWGSTRATGIPARFSGSGSGTEFTLTISSLQSEDFAVYYCQQHYRTPPSFGQGTKVEIK | 26.1 | 26.9 |
| VH 12 / VL 2 (antibody, V domains shown) VH: QVQLVQSGAEVKKPGASVKVSCKASGFTFSTYAINWVRQATGQGLEWMGVISYDANYKYYAQKFQGRVTMTRDTSISTAYMELSSLRSEDTAVYYCARDSQLRSLLYFEWLSQGYFDYWGQGTTLTVSS VL: DIQMTQSPSSLSASVGDRVTITCRSSQSITFDYKNYLAWYQQKPGKAPKLLIYWGSSLQSGVPSRFSGSGSGTDFTLTISSLQPEDFATYYCQQHYRTPPSFGQGTKVEIK | 88900 | 16.1 |
| VH 5 / VL 2 (antibody, V domains shown) VH: QVQLVESGGGVVQPGRSLRLSCAASGFTFSTYAMHWVRQAPGKGLEWVCVISYDANYKYYADSVKGRFTCSRDNSKNTLYLQMNSLRAEDTAVYYCARDSRLRSLLYFEWLSQGYFDYWGQGTLVTVSS VL: DIQMTQSPSSLSASVGDRVTITCRSSQSITFDYKNYLAWYQQKPGKAPKLLIYWGSSLQSGVPSRFSGSGSGTDFTLTISSLQPEDFATYYCQQHYRTPPSFGQGTKVEIK | 21.9 | 23.1 |
